No end group written: not given here.

In one test the target is T1, RXFP3 (Homo sapiens, UniProt Q9NSD7).
T1 construct: expressed in transfected cells; host or cells: CHO-K1
T1 sequence (Q9NSD7 1-469): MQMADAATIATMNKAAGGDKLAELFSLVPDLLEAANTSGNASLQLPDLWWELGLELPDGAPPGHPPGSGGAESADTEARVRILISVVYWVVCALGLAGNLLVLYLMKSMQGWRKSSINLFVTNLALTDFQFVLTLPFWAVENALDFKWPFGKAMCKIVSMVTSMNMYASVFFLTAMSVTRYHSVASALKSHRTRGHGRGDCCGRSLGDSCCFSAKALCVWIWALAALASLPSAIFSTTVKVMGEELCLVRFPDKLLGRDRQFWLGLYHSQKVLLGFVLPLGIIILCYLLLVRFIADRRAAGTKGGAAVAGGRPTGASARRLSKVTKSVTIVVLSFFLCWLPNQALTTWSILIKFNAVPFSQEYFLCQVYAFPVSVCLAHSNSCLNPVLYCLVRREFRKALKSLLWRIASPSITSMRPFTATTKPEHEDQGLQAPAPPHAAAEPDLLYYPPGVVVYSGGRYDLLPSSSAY
Nature of the test: Inhibition of forskolin-induced cAMP accumulation in RXFP3 expressing CHO-K1 cells (cAMP reporter gene assay). It counts as cell-based. The settings on record: CHO-K1, read-out: forskolin-induced cAMP production inhibited to. (cAMP levels reflect the balance of adenylyl cyclase and phosphodiesterase activity.)

Test [1] concerns human dermal fibroblasts (BJ3 cells) which express RXFP1. Briefly: TGF-β1-induced collagen expression in human dermal fibroblasts (hydroxyproline content). The settings on record: TGF-β1 2 ng/mL plus peptide 100 ng/mL, 72 hr. In kind it is cell-based. Here is the method:
The deposited collagen into the cell layer was hydrolysed and analysed for hydroxyproline content, as previously described (Samuel et al., 1996, Endocrinology 137:3884-3890). Hydroxyproline values were then converted to total collagen content by multiplying by a factor of 6.94 (based on hydroxyproline representing approximately 14.4% of the amino acid composition of collagen in most mammalian tissues). These experiments were performed 3-4 separate times in duplicate.

Test [2] concerns the target T2, RXFP1 receptor (UniProt Q9HBX9 1-757, limits assumed).
T2 sequence (looked up): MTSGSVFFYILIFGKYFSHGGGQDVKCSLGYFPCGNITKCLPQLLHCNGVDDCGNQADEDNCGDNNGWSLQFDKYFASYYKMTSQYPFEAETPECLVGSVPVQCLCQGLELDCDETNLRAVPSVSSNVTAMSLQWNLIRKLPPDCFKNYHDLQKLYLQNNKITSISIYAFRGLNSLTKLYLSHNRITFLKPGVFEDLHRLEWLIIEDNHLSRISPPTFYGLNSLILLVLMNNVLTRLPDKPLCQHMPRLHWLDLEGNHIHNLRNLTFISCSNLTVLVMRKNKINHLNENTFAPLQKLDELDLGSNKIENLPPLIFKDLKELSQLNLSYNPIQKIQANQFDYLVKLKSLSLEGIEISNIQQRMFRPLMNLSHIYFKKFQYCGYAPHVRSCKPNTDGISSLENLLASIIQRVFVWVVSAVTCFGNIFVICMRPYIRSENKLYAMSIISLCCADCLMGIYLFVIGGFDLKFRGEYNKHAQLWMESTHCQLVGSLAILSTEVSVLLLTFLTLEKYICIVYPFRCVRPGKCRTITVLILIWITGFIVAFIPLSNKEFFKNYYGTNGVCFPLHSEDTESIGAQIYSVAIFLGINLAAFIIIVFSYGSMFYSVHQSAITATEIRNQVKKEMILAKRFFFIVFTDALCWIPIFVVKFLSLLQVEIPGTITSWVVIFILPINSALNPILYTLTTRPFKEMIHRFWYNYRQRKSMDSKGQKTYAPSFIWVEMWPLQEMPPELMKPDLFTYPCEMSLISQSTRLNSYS
Nature of the test: cell-based or functional assay.

For test [3], the target named is T3, RXFP3 receptor (UniProt Q9NSD7 1-469, limits assumed).
T3 sequence (looked up): T1 sequence (Q9NSD7 1-469)
Briefly: cell-based or functional assay.

In test [4] the target is T4, RXFP4 receptor (UniProt Q8TDU9 1-374, limits assumed). Nature of the test: cell-based or functional assay.
T4 sequence (Q8TDU9 whole entry): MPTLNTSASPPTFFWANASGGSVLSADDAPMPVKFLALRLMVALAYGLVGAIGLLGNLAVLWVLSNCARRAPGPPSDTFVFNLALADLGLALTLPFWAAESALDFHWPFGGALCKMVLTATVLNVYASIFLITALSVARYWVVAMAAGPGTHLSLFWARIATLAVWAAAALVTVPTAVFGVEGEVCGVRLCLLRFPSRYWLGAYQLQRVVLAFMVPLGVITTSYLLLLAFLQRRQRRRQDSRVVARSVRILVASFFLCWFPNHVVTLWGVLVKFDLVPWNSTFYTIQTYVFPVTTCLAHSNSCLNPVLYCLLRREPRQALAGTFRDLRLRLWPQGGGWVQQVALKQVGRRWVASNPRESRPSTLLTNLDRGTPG
Test [5] addresses T2, RXFP1 receptor. Nature of the test: competition with Eu-labelled H2 relaxin on HEK-293T cells expressing RXFP1.
Test [6] deals with T4, RXFP4 receptor. Briefly: competition with 2.5 nM Eu-labelled mouse INSL5 on CHO-K1 cells expressing RXFP4.
In test [7] the target is T3, RXFP3 receptor. Nature of the test: cell-based or functional assay. The source holds these as a separate data set.
The target of test [8] is T3, RXFP3 receptor. Nature of the test: competition with 0.5 nM Eu-labelled INSL5A/H3 relaxinB on CHO-K1 cells expressing RXFP3.

Consider `CC[C@H](C)[C@@H]1NC(=O)[C@H](Cc2ccccc2)NC(=O)[C@H](CCC(=O)O)NC(=O)[C@H](CCCNC(=N)N)NC(=O)CNC(=O)[C@@H](NC(=O)[C@H](CC(C)C)NC(=O)[C@H](CCCNC(=N)N)NC(=O)[C@@H](NC(=O)CNC(=O)[C@H](Cc2ccc(O)cc2)NC(=O)[C@@H]2CCCN2C(=O)[C@H](C)NC(=O)[C@H](C)NC(=O)[C@@H](N)CCCNC(=N)N)C(C)C)CSSC[C@@H]2NC(=O)[C@@H](NC(=O)[C@H](CO)NC(=O)[C@H](CO)NC(=O)[C@H](CO)NC(=O)[C@H](CC(C)C)NC(=O)CNC(=O)[C@H](C)NC(=O)[C@H](CC(C)C)NC(=O)[C@@H](NC(=O)[C@@H](N)CC(=O)O)C(C)C)CSSC[C@H](NC(=O)CNC(=O)[C@H](Cc3c[nH]c4ccccc34)NC(=O)[C@H](CCCCN)NC2=O)C(=O)N[C@@H](CO)C(=O)N[C@@H](CCCCN)C(=O)N[C@@H](CO)C(=O)N[C@@H](CCC(=O)O)C(=O)N[C@@H]([C@@H](C)CC)C(=O)N[C@@H](CO)C(=O)N[C@@H](CO)C(=O)N[C@@H](CC(C)C)C(=O)N[C@H](C(=O)O)CSSC[C@@H](C(=O)NCC(=O)NCC(=O)N[C@@H](CO)C(=O)N[C@@H](CCCNC(=N)N)C(=O)N[C@@H](Cc2c[nH]c3ccccc23)C(=O)O)NC(=O)[C@H]([C@@H](C)O)NC(=O)[C@H](Cc2ccccc2)NC(=O)[C@H]([C@@H](C)CC)NC(=O)[C@H](C(C)C)NC(=O)[C@H](C)NC(=O)[C@H](CCCNC(=N)N)NC1=O` [H3 relaxin], for which the activity at 0.01 µM at RXFP3 is around 50%.

For the molecule “H2 relaxin: native human relaxin-2, cognate ligand of RXFP1 (chain 1 QLYSALANKCCHVGCTKRSLARFC; chain 2 DSWMEEVIKLCGRELVRAQIAICGMSTWS)”, the “inhibition of TGF-β1 induced collagen compared to TGF-β1 alone” value in test [1] amounted to 35%.

Regarding “H2 relaxin (from UniProt P04090 162-185; P04090 25-53) (ligand)”, the inhibition of TGF-β1-induced collagen in human dermal fibroblasts (BJ3 cells) with RXFP1 receptor [2] stood at 35%.

B1: analogue 15 (peptide)
chain 1: CKWGASKSEISSLC
chain 2: RAAPYGVRLCGREFIRAVIFTCGGSRW
modifications: disulfide (positions not given here)
notes: Synthetic; two inter-chain disulphides, no intra-A-chain disulphide; also called [R3A(11-24,C15→A)B]; RXFP3-selective agonist, analogue 2
As for B1, the “pEC50, ERK1/2 phosphorylation in stable CHO-RXFP3 cells (AlphaScreen)” value with RXFP3 receptor [3] was 10.4 -log10 (M not printed). In addition, the “pEC50 (M), activation of RXFP4” value with RXFP4 receptor [4] is 7.7 M (as -log10). The binding result with RXFP1 receptor [5] was “no binding (tested: <5 (pIC50/pKi, M))”. Moreover, the pIC50 with RXFP4 receptor [6] was 7.1 M (as -log10).

B2: analogue 17 (peptide)
chain 1: CKWGASKSEISSLC
chain 2: GVRLCGREFIRAVIFTCGGSRW
notes: Synthetic
B2: the “pEC50 (M), activation of RXFP4” value with RXFP4 receptor [4] was 7.85 M (as -log10). Further, the binding result with RXFP1 receptor [5] is on record as “no binding (tested: <5 (pIC50/pKi, M))”.

B3: analogue 19 (peptide)
chain 1: CKWGASKSEISSLC
chain 2: CGREFIRAVIFTCGGSRW
notes: Synthetic
As to B3, in the test with RXFP4 receptor [4], the “pEC50 (M), activation of RXFP4” value is 8.46 M (as -log10). The binding result in the test with RXFP1 receptor [5] is “no binding (tested: <5 (pIC50/pKi, M))”.

B4: native human relaxin-3 (H3 relaxin) (ligand)
chain 1: DVLAGLSSSCCKWGCSKSEISSLC
chain 2: RAAPYGVRLCGREFIRAVIFTCGGSRW
modifications: disulfide (positions not given here); also: one intra-A-chain and two inter-chain disulphide bonds, places not given here
notes: Two-chain peptide; one intra-A-chain and two inter-chain disulphide bonds; also called native relaxin-3
With B4, the “pEC50 (M), cAMP accumulation in HEK-293 cells expressing RXFP1” value with RXFP1 receptor [2] was 8.74 M (as -log10). Besides, the “pEC50 (M), activation of RXFP4” value with RXFP4 receptor [4] was 8.94 M (as -log10).

B5: analogue 14 (peptide)
chain 1: DVLAGLSSSACKWGASKSEISSLC
chain 2: RAAPYGVRLCGREFIRAVIFTCGGSRW
modifications: disulfide (positions not given here)
notes: Synthetic; no intra-A-chain disulphide, two inter-chain disulphides kept
In the case of B5, in the test with RXFP1 receptor [2], the “pEC50 (M), cAMP accumulation in HEK-293 cells expressing RXFP1” value was 6.23 M (as -log10). In the test with RXFP3 receptor [7], the “pEC50 (M), inhibition of forskolin-induced cAMP, reporter gene assay in CHO-K1 cells expressing RXFP3” value is 7.9 M (as -log10). Further, the pKi with RXFP3 receptor [8] is 7.3 M (as -log10).

B6: analogue 18 (peptide)
chain 1: CKWGASKSEISSLC
chain 2: RLCGREFIRAVIFTCGGSRW
notes: Synthetic
Consider B6, for which the “pEC50 (M), activation of RXFP4” value with RXFP4 receptor [4] was 8.1 M (as -log10). For the same molecule, the binding result with RXFP1 receptor [5] is “no binding (tested: <5 (pIC50/pKi, M))”.

B7: human INSL5 (ligand)
chain 1: QDLQTLCCTDGCSMTDLSALC
chain 2: KESVRLCGLEYIRTVIYICASSRW
notes: mature; Native receptor ligand used as comparator at RXFP4; also called hINSL5; native INSL5
In the case of B7, the “pEC50 (M), activation of RXFP4” value in the test with RXFP4 receptor [4] was 8.51 M (as -log10). Further, the pIC50 in the test with RXFP4 receptor [6] was 7.33 M (as -log10).

For the origin of these results see US20140024592A1, “Modified Relaxin Polypeptides” (Howard Florey Institute of Experimental Physiology and …, priority 2010, published 2014).
